Values of other authors, collected in publication PMC12805100.
Like-named read-outs stand apart in the source and are kept apart here.

How the values were obtained:
[1] = biological target: Calmodulin (Homo sapiens) (UniProt P0DP23)
[2] = biological target: Calmodulin (Homo sapiens) (UniProt P0DP23); remark: listed apart in the source

- Kd [1]: 600 nM
- Kd [2]: 100 nM
Substance: TRPA1 DCTCaMBE (from UniProt O75762)
